Experiment in all cases: two-hybrid library CCNG1;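 note: natural log of median RNA to DNA barcode read ratio; higher means stronger binding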
The target in one assay is T1, 4H470-bN.
T1 chain: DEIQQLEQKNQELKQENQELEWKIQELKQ

For the next assay, the target named is T2, 4H3961-bN.
T2 chain: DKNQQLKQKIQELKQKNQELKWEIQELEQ
Conditions: mean of both orientations.

Another assay has as its target T3, 4H4001-bN.
T3 chain: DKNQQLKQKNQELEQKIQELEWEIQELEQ

For another assay, the target named is T4, 4H570-bA.
T4 chain: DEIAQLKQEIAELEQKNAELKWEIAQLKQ

The target in a further assay is T5, 4H619-bA.
T5 chain: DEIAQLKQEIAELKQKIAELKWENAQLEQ

In the next assay the target is T6, 4H3631-bA.
T6 chain: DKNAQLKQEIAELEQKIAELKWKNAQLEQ

A further assay deals with T7, 4H3638-bA.
T7 chain: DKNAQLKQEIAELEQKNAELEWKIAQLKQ

A further assay has as its target T8, 4H3172-bA.
T8 chain: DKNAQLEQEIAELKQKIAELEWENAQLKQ

A further assay concerns the target T9, 4H850-bA.
T9 chain: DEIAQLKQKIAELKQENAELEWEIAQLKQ

The next assay concerns the target T10, 4H906-bA.
T10 chain: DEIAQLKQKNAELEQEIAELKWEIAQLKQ

The next assay addresses T11, 4H3414-bA.
T11 chain: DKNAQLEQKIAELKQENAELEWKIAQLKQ

The target in the next assay is T12, 4H584-bA.
T12 chain: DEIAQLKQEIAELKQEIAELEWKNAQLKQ

The target of the next assay is T13, 4H3817-bA.
T13 chain: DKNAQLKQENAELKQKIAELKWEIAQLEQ

Another assay concerns the target T14, 4H3974-bA.
T14 chain: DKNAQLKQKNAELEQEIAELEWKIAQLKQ

Another assay concerns the target T15, 4H2702-bH.
T15 chain: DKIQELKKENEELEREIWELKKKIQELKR

Another assay deals with T16, 4H797-bH.
T16 chain: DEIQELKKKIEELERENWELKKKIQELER

The target of the next assay is T17, 4H953-bH.
T17 chain: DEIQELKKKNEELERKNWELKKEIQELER

The target of another assay is T18, 4H3010-bH.
T18 chain: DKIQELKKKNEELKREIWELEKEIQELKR

For another assay, the target named is T19, 4H3427-bH.
T19 chain: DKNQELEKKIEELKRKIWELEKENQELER

The next assay addresses T20, 4H855-bH.
T20 chain: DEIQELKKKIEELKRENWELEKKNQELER

The next assay has as its target T21, 4H3112-bH.
T21 chain: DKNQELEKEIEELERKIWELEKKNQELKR

A further assay addresses T22, 4H918-bH.
T22 chain: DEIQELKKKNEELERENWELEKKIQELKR

A further assay concerns the target T23, 4H4073-bH.
T23 chain: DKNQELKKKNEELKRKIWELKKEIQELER

Another assay deals with T24, 4H968-bH.
T24 chain: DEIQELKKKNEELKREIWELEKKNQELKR

A further assay deals with T25, 4H575-bH.
T25 chain: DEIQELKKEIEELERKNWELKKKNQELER

Another assay concerns the target T26, 4H56-bA.
T26 chain: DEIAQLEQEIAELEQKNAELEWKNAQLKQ

The target in a further assay is T27, 4H683-bH.
T27 chain: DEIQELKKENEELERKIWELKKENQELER

In another assay the target is T28, 4H754-bH.
T28 chain: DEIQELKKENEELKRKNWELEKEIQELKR

Another assay deals with T29, 4H457-bH.
T29 chain: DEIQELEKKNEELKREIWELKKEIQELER

The target in a further assay is T30, 4H3926-bH.
T30 chain: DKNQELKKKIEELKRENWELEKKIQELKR

The next assay addresses T31, 4H780-bH.
T31 chain: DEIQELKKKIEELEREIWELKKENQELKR

The next assay addresses T32, 4H346-bH.
T32 chain: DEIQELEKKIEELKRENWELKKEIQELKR

Another assay concerns the target T33, 4H2673-bH.
T33 chain: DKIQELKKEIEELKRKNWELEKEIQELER

On to DKNQQLKQKIQELKQKNQELKWEIQELEQ [4H3961-bN], for which the interaction score with 4H470-bN is -1.5; with 4H3961-bN it was -1.14; with 4H4001-bN, -0.763.

As for DKNAQLEQEIAELKQKIAELEWENAQLKQ [4H3172-bA], the interaction score is -1.11 with 4H570-bA; -0.797 in the assay with 4H619-bA; 0.247 with 4H3631-bA; -0.395 with 4H3638-bA; 1.36 with 4H3172-bA; -0.244 with 4H850-bA. Moreover, the interaction score with 4H906-bA is -0.0855; in the assay with 4H3414-bA, -0.273; with 4H584-bA, -0.867; with 4H3817-bA, -0.291; in the assay with 4H3974-bA, 0.174.

As to DKIQELKKEIEELKRKNWELEKEIQELER [4H2673-bH], the interaction score is -0.671 with 4H2702-bH; -0.55 with 4H797-bH; -1.62 with 4H953-bH; 2.11 with 4H3010-bH; -0.449 with 4H3427-bH; -0.854 with 4H855-bH. For the same molecule, the interaction score with 4H3112-bH is -0.64; with 4H918-bH it was -0.87; in the assay with 4H4073-bH it was 0.575; with 4H968-bH, -0.933; with 4H575-bH, -0.762; with 4H56-bA it was 0.863. Besides, the interaction score with 4H683-bH was 0.639; with 4H754-bH, -1.99; with 4H457-bH, -0.154; in the assay with 4H3926-bH, 0.192; with 4H780-bH, -0.56; with 4H346-bH, -0.803. Further, the interaction score with 4H2673-bH was -0.111.
